We go through one substance from article PMC5465037.

In the assay the target is wild-type desmin, human (human) (UniProt P17661). Kind of assay: co-sedimentation.

“wild-type desmin, human (from UniProt P17661 1-470) (natural protein)” yielded a percent of desmin pelleted at 22 °C of 83.8%, a percent of desmin pelleted at 37 °C of 93.3% and a percent of desmin pelleted at 44 °C of 94.3%.
